The supplement of paper PMC9170038

System: MS2 coat protein
Experiment: apparent KD of MS2 coat protein; designed switch direction (-1 OFF switch, 1 ON switch): -1; higher = weaker reporter binding
How it was run: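 Three titration conditions were used: no input, 200 uM small-molecule ligand, and an oligonucleotide input. In each, SNAP-549-labelled MS2 coat protein was raised from 0.7 or 1.5 nM, doubling, to 3 µM over designed RNA switches transcribed on Illumina chips by stalled E. coli RNA polymerase. Curve fits of normalised cluster fluorescence gave values whose per-design median over clusters is the apparent KD.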

[1] = input ligand: microRNA oligo, concentration not stated
[2] = Eterna round: R95, input ligand: microRNA oligo, concentration not stated
[3] = Eterna round: R95, input ligand: FMN 200 uM
[4] = Eterna round: R95, input ligand: none

AUAAUGUGAGGAUAUCGAGACUACUGCCUCGGCAGUAGUCUCGAGAAGGCACAUGAGGAUCACCCAUGUGAUCA [E4/2-A2] (Eterna round: R97, puzzle: Exclusion 4)
apparent KD of MS2 coat protein (input ligand: FMN 200 uM): 79 nM | apparent KD of MS2 coat protein (input ligand: none): 1190 nM

AUACCACGAGGAUAUCGUCUAUUCCACAUGAGGAUCACCCAUGUUAUCCAUGUUUCGUUUCGAGAAGGCGUGGGUU [JR_E5_Sub074] (Eterna round: R96, puzzle: Exclusion 5)
apparent KD of MS2 coat protein (input ligand: FMN 200 uM): 50.8 nM | apparent KD of MS2 coat protein [1]: 38.2 nM | apparent KD of MS2 coat protein (input ligand: none): 51.6 nM

AUACCACGAGGAUAUCGUCUAUUCCACAUGAGGAUCACCCAUGUUAUCCAUGUUUCGUUUCGAGAAGGCGUGGGUU [JR_E5_Sub074] (puzzle: Exclusion 5)
apparent KD of MS2 coat protein [2]: 45.9 nM

AUACCAUGCCGCCUAAUAGCUUUUUGCCCGUCUUAUAAAACAUGAGGAUCACCCAUGUAAAACUCGUGGCGUGACCC [Quarre] (puzzle: Sensor v3, turn-off variant 2)
apparent KD of MS2 coat protein [3]: 156 nM | apparent KD of MS2 coat protein [2]: 21.9 nM | apparent KD of MS2 coat protein [4]: 195 nM

AUAGGCCGAGGAUAUGUAGCUAUGAACAUGAGGAUCACCCAUGUGAGUGUCGUGCGUAUUAUAGAAGGCGGUGCAU [EX5 B.14] (Eterna round: R97, puzzle: Exclusion 5)
apparent KD of MS2 coat protein (input ligand: FMN 200 uM): 17 nM | apparent KD of MS2 coat protein (input ligand: none): 16.1 nM

AUAUAAACAUAGGAUAUCGAAUUUAUCAUUUAACGAGAAGGAUGAACAUGAGGAUCACCCAUGUGGUAUCAUGG [Mat - Exclusion 6 - JL Mod - D5] (puzzle: Exclusion 6)
apparent KD of MS2 coat protein [3]: 553 nM | apparent KD of MS2 coat protein [2]: 333 nM | apparent KD of MS2 coat protein [4]: 340 nM

AUAUAGUGAGGAUAUACAUGAGGAUCACCCAUGUGGUAGUAGAUACAGUAGAGAUAGAGUAGAAGGCACGAUGA [EX3 #26] (Eterna round: R97, puzzle: Exclusion 3)
apparent KD of MS2 coat protein (input ligand: FMN 200 uM): 197 nM | apparent KD of MS2 coat protein (input ligand: none): 68 nM

AUAUAGUGAGGAUAUCCAAUAUAUGACAUGAGGAUCACCCAUGUUUCCACUCGUACCUCCGGAGAAGGCACAUUUU [Ex5 #65] (Eterna round: R97, puzzle: Exclusion 5)
apparent KD of MS2 coat protein (input ligand: FMN 200 uM): 27.2 nM | apparent KD of MS2 coat protein (input ligand: none): 27.6 nM

AUAUUAACAUAGGAUAUCGAAUAAAUUAUUUAACGAGAAGGAUGAACAUGAGGAUCACCCAUGUGGUAUCAUGG [Mat - Exclusion 6 - JL Mod - D29] (puzzle: Exclusion 6)
apparent KD of MS2 coat protein [3]: 153 nM | apparent KD of MS2 coat protein [2]: 236 nM | apparent KD of MS2 coat protein [4]: 411 nM

AUCAGCUCGUGAGGAUAUGAACAUGAGGAUCACCCAUGUAAGAUCAAGCUGCUUCGGCAGCAAGUUCAGAAGGCACGAGCUGAU [ENG2/10-A3] (Eterna round: R96, puzzle: Exclusion NG 2)
apparent KD of MS2 coat protein (input ligand: FMN 200 uM): 182 nM | apparent KD of MS2 coat protein [1]: 84 nM | apparent KD of MS2 coat protein (input ligand: none): 156 nM

AUCAGCUCGUGAGGAUAUGCACAUGAGGAUCACCCAUGUAAGAUCAAGCUGCUUCGGCAGCAAGUGCAGAAGGCACGAGCUGAU [ENG2/9-A2] (Eterna round: R96, puzzle: Exclusion NG 2)
apparent KD of MS2 coat protein (input ligand: FMN 200 uM): 186 nM | apparent KD of MS2 coat protein [1]: 132 nM | apparent KD of MS2 coat protein (input ligand: none): 182 nM

AUCAUGUAAGGAUAUCGUGCAAGUUUCAAAAGAGGCUUGUGCGAGAAGGUACAUGAGGAUCACCCAUGUAGGUU [Omei Ex4 B10] (Eterna round: R97, puzzle: Exclusion 4)
apparent KD of MS2 coat protein (input ligand: FMN 200 uM): 57.8 nM | apparent KD of MS2 coat protein (input ligand: none): 584 nM

AUCAUGUAAGGAUAUCUGACAUGUGACUUCGGUCACUGUUCAGAGAAGGUACAUGAGGAUCACCCAUGUAGAAC [Ex4-3: 44] (puzzle: Exclusion 4)
apparent KD of MS2 coat protein [2]: 59.6 nM

AUCAUGUCAGGAUAUCUGAUAUGGAUCUUCGGAUCAAGUUCAGAGAAGGGACAUGAGGAUCACCCAUGUCGAAC [Ex4-3: 31] (puzzle: Exclusion 4)
apparent KD of MS2 coat protein [2]: 25.6 nM

AUCCUGAGGCUUUGCUUUAGGCGUACAUGAGGAUCACCCAUGUAGGAUAUGGUAGGCUUUGCUUACCAGAAGGACAUUAUGAUC [JL EXNG3 1.19] (Eterna round: R96, puzzle: Exclusion NG 3)
apparent KD of MS2 coat protein (input ligand: FMN 200 uM): 243 nM | apparent KD of MS2 coat protein [1]: 44.1 nM | apparent KD of MS2 coat protein (input ligand: none): 43 nM

AUCGUGAAGAAGGAUAUGGGCCCGGUAAAACGACUAGAAGGUCUGACAUGAGGAUCACCCAUGUGAUACCAAAA [Veve] (puzzle: Exclusion 6)
apparent KD of MS2 coat protein [3]: 34.1 nM | apparent KD of MS2 coat protein [2]: 42.9 nM | apparent KD of MS2 coat protein [4]: 35.3 nM

AUCGUGCAGCUUUGCUGUACGAGUACAUGAGGAUCACCCAUGUAGGAUAUGGUACGCUUUGCGUGCUAGAAGGAUAUGAGUAGG [EX ENG3 1.42] (Eterna round: R96, puzzle: Exclusion NG 3)
apparent KD of MS2 coat protein (input ligand: FMN 200 uM): 84.3 nM | apparent KD of MS2 coat protein [1]: 43 nM | apparent KD of MS2 coat protein (input ligand: none): 48.3 nM

AUCUCUCGUGUUAGGAUAUCCAGUUAGUUCGUGCGGGAGAAGGAACAUGAGGAUCACCCAUGUAAACAAAUCGC [BmEX4 B.21] (Eterna round: R97, puzzle: Brourd's mod of Exclusion 4)
apparent KD of MS2 coat protein (input ligand: FMN 200 uM): 52.1 nM | apparent KD of MS2 coat protein (input ligand: none): 18.5 nM

AUGAAGUAAGGAUAUUAUCGCGGGCAGAGGCCCAGCUCAUAUGAGAAGGUACAUGAGGAUCACCCAUGUCCUCU [Eternabot (L2) Solution 72] (Eterna round: R97, puzzle: Exclusion 4)
apparent KD of MS2 coat protein (input ligand: FMN 200 uM): 25.9 nM | apparent KD of MS2 coat protein (input ligand: none): 30 nM

AUGAGCAGACGGAGAUCCAACAUGAGGAUCACCCAUGUCUCAAAAGCUUUUUGCUCAUCUUAUUGUACCUUGGUGCU [Mat - Sensor v3 - turn-off var 1 - JL Mod - D16] (puzzle: Sensor v3, turn-off variant 1)
apparent KD of MS2 coat protein [3]: 167 nM | apparent KD of MS2 coat protein [2]: 13.2 nM | apparent KD of MS2 coat protein [4]: 194 nM

AUGAGGUGAGGAUAUACGAGAUGAUAUUGCAGAGCAAGUCAGUAGAAGGCACAUGAGGAUCACCCAUGUUCGGG [Eternabot (L2) Solution 93] (Eterna round: R97, puzzle: Exclusion 4)
apparent KD of MS2 coat protein (input ligand: FMN 200 uM): 269 nM | apparent KD of MS2 coat protein (input ligand: none): 397 nM

AUGCGACAUGAGGAUCACCCAUGUGAGGAUAUGCGAAUGCAUACUUCGGUGUGAUAGAGCAGAAGGCGCAGGUA [EX1 #16] (Eterna round: R97, puzzle: Exclusion 1)
apparent KD of MS2 coat protein (input ligand: FMN 200 uM): 560 nM | apparent KD of MS2 coat protein (input ligand: none): 831 nM

AUGCGACAUGAGGAUCACCCAUGUGAGGAUAUGCGAAUGCAUACUUCGGUGUGAUAGAGUAGAAGGCGCAGGUA [EX1 #17] (Eterna round: R97, puzzle: Exclusion 1)
apparent KD of MS2 coat protein (input ligand: FMN 200 uM): 472 nM | apparent KD of MS2 coat protein (input ligand: none): 761 nM

AUGCGUGGCUAGGAUAUCGAGGAAUUUAGCCAGCGAGAAGGAGCCACAUGAGGAUCACCCAUGUGGUGAACCUC [jl-ex6-4.62 ViennaUCT mod] (Eterna round: R97, puzzle: Exclusion 6)
apparent KD of MS2 coat protein (input ligand: FMN 200 uM): 41.1 nM | apparent KD of MS2 coat protein (input ligand: none): 10.2 nM

AUGCGUGGCUAGGAUAUCGAGGAAUUUAGCCAGCGAGAAGGAGCCACAUGAGGAUCACCCAUGUGGUGAACCUU [jl-ex6-4.64 ViennaUCT mod] (Eterna round: R97, puzzle: Exclusion 6)
apparent KD of MS2 coat protein (input ligand: FMN 200 uM): 14.5 nM | apparent KD of MS2 coat protein (input ligand: none): 15.8 nM

AUGCGUGGCUAGGAUAUUGAGGAAUUUAGCCAGCAAGAAGGAGCCACAUGAGGAUCACCCAUGUGGUGAACCUC [jl-ex6-4.61 ViennaUCT mod] (Eterna round: R97, puzzle: Exclusion 6)
apparent KD of MS2 coat protein (input ligand: FMN 200 uM): 13.2 nM | apparent KD of MS2 coat protein (input ligand: none): 30.6 nM

AUGCUCCGUGUAGGAUAUCGCCGCACCACCCGGCGAGAAGGACAUGAGGAUCACCCAUGUAUGUUAUUAUCACGUGUGGCGCGC [Design 42] (Eterna round: R96, puzzle: Exclusion NG 1)
apparent KD of MS2 coat protein (input ligand: FMN 200 uM): 17.2 nM | apparent KD of MS2 coat protein [1]: 12.3 nM | apparent KD of MS2 coat protein (input ligand: none): 13.6 nM

AUGCUCCGUGUAGGAUAUCGCCGCAUCACUCGGCGAGAAGGACAUGAGGAUCACCCAUGUAUGUUAUUAUCACGUGUGGCGCGC [Design 44] (Eterna round: R96, puzzle: Exclusion NG 1)
apparent KD of MS2 coat protein (input ligand: FMN 200 uM): 52.3 nM | apparent KD of MS2 coat protein [1]: 16.7 nM | apparent KD of MS2 coat protein (input ligand: none): 25.3 nM

AUGGAGGUAGUCAGGAUAUCGGGCGCUCGGGCGUACGAGAAGGGACAUGAGGAUCACCCAUGUCGCUCAUUCCA [BmEX4 C.2] (Eterna round: R97, puzzle: Brourd's mod of Exclusion 4)
apparent KD of MS2 coat protein (input ligand: FMN 200 uM): 24.6 nM | apparent KD of MS2 coat protein (input ligand: none): 23.4 nM

AUGUACCGAAGAAGUUGUAACAUGAGGAUCACCCAUGUCGAAGUGAGGACAGGGAAGAGAAGCUGUGCUCGUCAUAG [Eternabot (L2) Solution 17] (Eterna round: R97, puzzle: Sensor, turn-off variant 1)
apparent KD of MS2 coat protein (input ligand: FMN 200 uM): 71.6 nM | apparent KD of MS2 coat protein (input ligand: none): 77.9 nM

AUGUGCACGCUGCGAUCCUACAUGAGGAUCACCCAUGUGGUCUGGUGGCGUGGGUCACCGGACUUGGCUCGUCUUGA [salish99_S_TOV1_R5_067] (Eterna round: R97, puzzle: Sensor, turn-off variant 1)
apparent KD of MS2 coat protein (input ligand: FMN 200 uM): 117 nM | apparent KD of MS2 coat protein (input ligand: none): 128 nM
